These results are taken from the supplement of paper PMC9112550, “Optimization of the antimicrobial peptide Bac7 by deep mutational scanning” (BMC Biology, 2022).

This data set deals with Escherichia coli TOP10. Briefly: shrunken log2 fold change of peptide-encoding DNA abundance (4.5 h post-induction vs induction); higher = less antimicrobial activity (less host growth inhibition). The note with it: time post-induction: 4.5 h; library: site-saturation at positions 5, 18, 19, 20.
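Also: peptides expressed intracellularly from a pBAD plasmid library in pooled LB shake-flask culture, induced with 0.3% L-arabinose, DNA abundance read by NGS, three biological replicates, DESeq2 with apeglm shrinkage.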

On to RRIRIRPPRLPRPRPRPQSYPRP, for which the “shrunken log2 fold change” value was -0.603.

As to RRIRPRPPRLPRPRPRPYHCPRP, the “shrunken log2 fold change” value was -0.0484.

As to RRIRCRPPRLPRPRPRPHCGPRP, the “shrunken log2 fold change” value was -0.156.

As for RRIRSRPPRLPRPRPRPLWEPRP, the “shrunken log2 fold change” value was -0.0343.

For RRIRWRPPRLPRPRPRPVLWPRP, the “shrunken log2 fold change” value stood at 0.809.

Consider RRIRIRPPRLPRPRPRPGHVPRP, for which the “shrunken log2 fold change” value is -0.0457.

In the case of RRIRVRPPRLPRPRPRPHDWPRP, the “shrunken log2 fold change” value is 0.00123.

For the sequence RRIRARPPRLPRPRPRPSWPPRP, the “shrunken log2 fold change” value came out at 0.164.

Turning to RRIRLRPPRLPRPRPRPCVRPRP, the “shrunken log2 fold change” value was found to be 0.0511.

Regarding RRIRIRPPRLPRPRPRPDSRPRP, the “shrunken log2 fold change” value is -0.0316.

On to RRIRRRPPRLPRPRPRPDHCPRP, for which the “shrunken log2 fold change” value is -0.0402.

RRIRVRPPRLPRPRPRPMEMPRP: the “shrunken log2 fold change” value is -0.0249.

Consider RRIRNRPPRLPRPRPRPADTPRP, for which the “shrunken log2 fold change” value was 0.124.

Take RRIRKRPPRLPRPRPRPFDKPRP: the “shrunken log2 fold change” value came to 0.132.

As for RRIRNRPPRLPRPRPRPQFIPRP, the “shrunken log2 fold change” value is -0.125.

RRIRQRPPRLPRPRPRPTVYPRP: the “shrunken log2 fold change” value is 0.079.

Regarding RRIRNRPPRLPRPRPRPNLIPRP, the “shrunken log2 fold change” value was -0.369.

RRIRIRPPRLPRPRPRPGVSPRP: the “shrunken log2 fold change” value was -0.351.

As to RRIRCRPPRLPRPRPRPGSKPRP, the “shrunken log2 fold change” value is -0.179.

On to RRIRARPPRLPRPRPRPEWIPRP, for which the “shrunken log2 fold change” value amounted to 0.129.

In the case of RRIRERPPRLPRPRPRPILFPRP, the “shrunken log2 fold change” value was -0.57.

As to RRIRQRPPRLPRPRPRPWKNPRP, the “shrunken log2 fold change” value is 0.033.

In the case of RRIRLRPPRLPRPRPRPESDPRP, the “shrunken log2 fold change” value was -0.0845.

As to RRIRCRPPRLPRPRPRPNGTPRP, the “shrunken log2 fold change” value is -0.0476.

With RRIRSRPPRLPRPRPRPYDNPRP, the “shrunken log2 fold change” value was -0.0962.

Turning to RRIRRRPPRLPRPRPRPPCNPRP, the “shrunken log2 fold change” value was found to be 0.36.

Consider RRIRGRPPRLPRPRPRPDVDPRP, for which the “shrunken log2 fold change” value turned out to be 1.82.

Take RRIRTRPPRLPRPRPRPMKIPRP: the “shrunken log2 fold change” value amounted to 0.0884.

As for RRIRRRPPRLPRPRPRPRQEPRP, the “shrunken log2 fold change” value was 0.123.

For the sequence RRIRYRPPRLPRPRPRPPCVPRP, the “shrunken log2 fold change” value stood at 0.0199.

As to RRIRVRPPRLPRPRPRPLKCPRP, the “shrunken log2 fold change” value is -0.412.

In the case of RRIRNRPPRLPRPRPRPLLRPRP, the “shrunken log2 fold change” value was -0.267.

As to RRIRRRPPRLPRPRPRPTVSPRP, the “shrunken log2 fold change” value came to 0.119.

Turning to RRIRLRPPRLPRPRPRPCHWPRP, the “shrunken log2 fold change” value is -0.11.

Turning to RRIRTRPPRLPRPRPRPTHWPRP, the “shrunken log2 fold change” value turned out to be 0.987.

For RRIRERPPRLPRPRPRPQPCPRP, the “shrunken log2 fold change” value is -0.312.

RRIRMRPPRLPRPRPRPHSAPRP: the “shrunken log2 fold change” value was 0.283.

For RRIRCRPPRLPRPRPRPDDGPRP, the “shrunken log2 fold change” value was -0.0952.

Consider RRIRKRPPRLPRPRPRPNQYPRP, for which the “shrunken log2 fold change” value is -0.0702.

For the sequence RRIRGRPPRLPRPRPRPCSNPRP, the “shrunken log2 fold change” value came to 0.275.

With RRIRERPPRLPRPRPRPNWFPRP, the “shrunken log2 fold change” value is -0.0607.

With RRIRYRPPRLPRPRPRPWMSPRP, the “shrunken log2 fold change” value was -0.0725.

For the sequence RRIRSRPPRLPRPRPRPRKGPRP, the “shrunken log2 fold change” value was 0.208.

In the case of RRIRERPPRLPRPRPRPTDMPRP, the “shrunken log2 fold change” value was -0.375.

For RRIRSRPPRLPRPRPRPAYYPRP, the “shrunken log2 fold change” value is -0.495.

In the case of RRIRPRPPRLPRPRPRPSKQPRP, the “shrunken log2 fold change” value was -0.116.

Consider RRIRRRPPRLPRPRPRPTTVPRP, for which the “shrunken log2 fold change” value is 0.792.

With RRIRARPPRLPRPRPRPWSCPRP, the “shrunken log2 fold change” value is -0.045.

RRIRRRPPRLPRPRPRPRIQPRP: the “shrunken log2 fold change” value worked out at 0.241.

On to RRIRHRPPRLPRPRPRPLHCPRP, for which the “shrunken log2 fold change” value was -0.519.

With RRIRNRPPRLPRPRPRPKIRPRP, the “shrunken log2 fold change” value is -0.0344.

As for RRIRDRPPRLPRPRPRPAMWPRP, the “shrunken log2 fold change” value is 1.24.

As to RRIRPRPPRLPRPRPRPVPFPRP, the “shrunken log2 fold change” value was -0.303.

As for RRIRCRPPRLPRPRPRPNQYPRP, the “shrunken log2 fold change” value was -0.92.

On to RRIRVRPPRLPRPRPRPQTGPRP, for which the “shrunken log2 fold change” value was -0.0393.

As for RRIRMRPPRLPRPRPRPKFPPRP, the “shrunken log2 fold change” value turned out to be 0.455.

In the case of RRIRSRPPRLPRPRPRPPWNPRP, the “shrunken log2 fold change” value came to 0.0621.

On to RRIRRRPPRLPRPRPRPLCGPRP, for which the “shrunken log2 fold change” value amounted to 0.0348.

For RRIRLRPPRLPRPRPRPSIDPRP, the “shrunken log2 fold change” value was -0.191.

Take RRIRSRPPRLPRPRPRPFMQPRP: the “shrunken log2 fold change” value was -0.638.

RRIRERPPRLPRPRPRPEPYPRP: the “shrunken log2 fold change” value was -0.0697.

Take RRIRHRPPRLPRPRPRPVYAPRP: the “shrunken log2 fold change” value was -0.375.

RRIRTRPPRLPRPRPRPMSAPRP: the “shrunken log2 fold change” value was -0.152.

Take RRIRVRPPRLPRPRPRPLAYPRP: the “shrunken log2 fold change” value came out at 0.0656.

Turning to RRIRDRPPRLPRPRPRPIEVPRP, the “shrunken log2 fold change” value is -0.13.

For RRIRPRPPRLPRPRPRPKVSPRP, the “shrunken log2 fold change” value was 0.0436.

For RRIRLRPPRLPRPRPRPFWRPRP, the “shrunken log2 fold change” value was found to be 0.252.

Take RRIRNRPPRLPRPRPRPNKRPRP: the “shrunken log2 fold change” value is -0.221.

With RRIRDRPPRLPRPRPRPDPLPRP, the “shrunken log2 fold change” value was determined as 0.64.

Regarding RRIRMRPPRLPRPRPRPKSKPRP, the “shrunken log2 fold change” value stood at 0.566.

Take RRIRMRPPRLPRPRPRPNVTPRP: the “shrunken log2 fold change” value stood at 0.0238.

Take RRIRHRPPRLPRPRPRPCIWPRP: the “shrunken log2 fold change” value was -0.121.

In the case of RRIRMRPPRLPRPRPRPCFHPRP, the “shrunken log2 fold change” value was -0.318.

With RRIRMRPPRLPRPRPRPTRIPRP, the “shrunken log2 fold change” value was determined as 0.447.

Consider RRIRHRPPRLPRPRPRPMSKPRP, for which the “shrunken log2 fold change” value is -0.203.

For the sequence RRIRCRPPRLPRPRPRPKYDPRP, the “shrunken log2 fold change” value was -0.605.

Turning to RRIRLRPPRLPRPRPRPQMQPRP, the “shrunken log2 fold change” value was 0.017.

With RRIRGRPPRLPRPRPRPPDRPRP, the “shrunken log2 fold change” value stood at 0.564.

Regarding RRIRNRPPRLPRPRPRPIWIPRP, the “shrunken log2 fold change” value was -0.0856.

For the sequence RRIRLRPPRLPRPRPRPVFLPRP, the “shrunken log2 fold change” value is -0.207.

With RRIRARPPRLPRPRPRPDVCPRP, the “shrunken log2 fold change” value is -0.0214.

Turning to RRIRWRPPRLPRPRPRPKQNPRP, the “shrunken log2 fold change” value was 0.3.

Regarding RRIRRRPPRLPRPRPRPYDWPRP, the “shrunken log2 fold change” value was -0.0665.

For RRIRGRPPRLPRPRPRPIVIPRP, the “shrunken log2 fold change” value is -0.227.

As to RRIRARPPRLPRPRPRPQITPRP, the “shrunken log2 fold change” value was 0.118.

RRIRKRPPRLPRPRPRPDTRPRP: the “shrunken log2 fold change” value turned out to be 0.0202.

Take RRIRMRPPRLPRPRPRPAESPRP: the “shrunken log2 fold change” value came to 0.419.

Consider RRIRPRPPRLPRPRPRPHGQPRP, for which the “shrunken log2 fold change” value is 0.186.

RRIRKRPPRLPRPRPRPISSPRP: the “shrunken log2 fold change” value was -0.0713.

For the sequence RRIRFRPPRLPRPRPRPCVMPRP, the “shrunken log2 fold change” value is -0.143.

Turning to RRIRMRPPRLPRPRPRPNKSPRP, the “shrunken log2 fold change” value came to 0.0117.

RRIRDRPPRLPRPRPRPMTFPRP: the “shrunken log2 fold change” value was -0.0951.

On to RRIRHRPPRLPRPRPRPWIRPRP, for which the “shrunken log2 fold change” value is -0.0813.

On to RRIRFRPPRLPRPRPRPIPWPRP, for which the “shrunken log2 fold change” value was -0.14.

Consider RRIRKRPPRLPRPRPRPHDKPRP, for which the “shrunken log2 fold change” value was 0.176.

For the sequence RRIRIRPPRLPRPRPRPMIPPRP, the “shrunken log2 fold change” value amounted to 1.87.

As to RRIRMRPPRLPRPRPRPAVGPRP, the “shrunken log2 fold change” value came to 0.5.

For the sequence RRIRKRPPRLPRPRPRPYHYPRP, the “shrunken log2 fold change” value stood at 0.00414.

For RRIRPRPPRLPRPRPRPDTMPRP, the “shrunken log2 fold change” value was -0.649.

Take RRIRERPPRLPRPRPRPFCGPRP: the “shrunken log2 fold change” value was -0.058.

RRIRSRPPRLPRPRPRPLPAPRP: the “shrunken log2 fold change” value came to 0.494.

As for RRIRFRPPRLPRPRPRPSKMPRP, the “shrunken log2 fold change” value is -0.351.

Regarding RRIRMRPPRLPRPRPRPHLGPRP, the “shrunken log2 fold change” value turned out to be 0.086.

With RRIRVRPPRLPRPRPRPNKYPRP, the “shrunken log2 fold change” value was -0.668.

For RRIRNRPPRLPRPRPRPRTVPRP, the “shrunken log2 fold change” value is -0.403.

As to RRIRIRPPRLPRPRPRPYWAPRP, the “shrunken log2 fold change” value was -1.07.

As for RRIRKRPPRLPRPRPRPMEFPRP, the “shrunken log2 fold change” value is -0.00102.

Turning to RRIRSRPPRLPRPRPRPLLFPRP, the “shrunken log2 fold change” value was -0.129.

For the sequence RRIRLRPPRLPRPRPRPCTYPRP, the “shrunken log2 fold change” value is -0.683.

Turning to RRIRTRPPRLPRPRPRPFFGPRP, the “shrunken log2 fold change” value stood at 0.0239.

For the sequence RRIRPRPPRLPRPRPRPVVTPRP, the “shrunken log2 fold change” value is -0.207.

For the sequence RRIRRRPPRLPRPRPRPQHPPRP, the “shrunken log2 fold change” value was 0.526.

Consider RRIRLRPPRLPRPRPRPPQLPRP, for which the “shrunken log2 fold change” value is 0.206.

With RRIRIRPPRLPRPRPRPFGEPRP, the “shrunken log2 fold change” value is -0.202.

Take RRIRTRPPRLPRPRPRPCRTPRP: the “shrunken log2 fold change” value is -0.0391.

Take RRIRHRPPRLPRPRPRPDLRPRP: the “shrunken log2 fold change” value was 0.0039.

On to RRIRDRPPRLPRPRPRPFYHPRP, for which the “shrunken log2 fold change” value was -0.124.

With RRIRTRPPRLPRPRPRPHLPPRP, the “shrunken log2 fold change” value came to 0.236.

Take RRIRGRPPRLPRPRPRPSVAPRP: the “shrunken log2 fold change” value turned out to be 1.37.

Consider RRIRMRPPRLPRPRPRPQGWPRP, for which the “shrunken log2 fold change” value was found to be 1.01.

As for RRIRQRPPRLPRPRPRPFCFPRP, the “shrunken log2 fold change” value was found to be 0.117.

As to RRIRVRPPRLPRPRPRPILMPRP, the “shrunken log2 fold change” value was -0.231.

Consider RRIRGRPPRLPRPRPRPFICPRP, for which the “shrunken log2 fold change” value was 0.268.

With RRIRWRPPRLPRPRPRPDENPRP, the “shrunken log2 fold change” value is 0.644.

As to RRIRRRPPRLPRPRPRPNQTPRP, the “shrunken log2 fold change” value amounted to 0.0193.
